Data: patent US20040191860A1

Experiments:
[1] = molecular target: Transforming growth factor-β1 (UniProt P01137); test: 125I-TGF-β1 (50 pM) binding to MvLu1 cells with concentrated supernatant of PIPLC treated HaCaT cells, dose 1 (one T-25 flask, about 1x10^6 cells)
[2] = molecular target: Transforming growth factor-β1 (UniProt P01137); test: 125I-TGF-β1 (50 pM) binding to MvLu1 cells with concentrated supernatant of untreated HaCaT cells (r150 released by an endogenous phospholipase), dose 1
[3] = molecular target: Transforming growth factor-β1 (UniProt P01137); test: 125I-TGF-β1 (50 pM) binding to MvLu1 cells with concentrated supernatant of untreated HaCaT cells (r150 released by an endogenous phospholipase), dose 2
[4] = molecular target: Transforming growth factor-β1 (UniProt P01137); test: 125I-TGF-β1 (50 pM) binding to MvLu1 cells with concentrated supernatant of PIPLC treated HaCaT cells, dose 2
[5] = molecular target: r150, 150 kDa GPI-anchored TGF-β1 binding protein (membrane anchored form) (human) (UniProt Q6YHK3); test: competition of unlabeled TGF-β3 with 125I-TGF-β1 on keratinocytes, affinity cross-link labeling, densitometry
Sequence of r150, 150 kDa GPI-anchored TGF-β1 binding protein (membrane anchored form) (human) (Q6YHK3 other isoform, or with tags, fused parts or gaps limits assumed): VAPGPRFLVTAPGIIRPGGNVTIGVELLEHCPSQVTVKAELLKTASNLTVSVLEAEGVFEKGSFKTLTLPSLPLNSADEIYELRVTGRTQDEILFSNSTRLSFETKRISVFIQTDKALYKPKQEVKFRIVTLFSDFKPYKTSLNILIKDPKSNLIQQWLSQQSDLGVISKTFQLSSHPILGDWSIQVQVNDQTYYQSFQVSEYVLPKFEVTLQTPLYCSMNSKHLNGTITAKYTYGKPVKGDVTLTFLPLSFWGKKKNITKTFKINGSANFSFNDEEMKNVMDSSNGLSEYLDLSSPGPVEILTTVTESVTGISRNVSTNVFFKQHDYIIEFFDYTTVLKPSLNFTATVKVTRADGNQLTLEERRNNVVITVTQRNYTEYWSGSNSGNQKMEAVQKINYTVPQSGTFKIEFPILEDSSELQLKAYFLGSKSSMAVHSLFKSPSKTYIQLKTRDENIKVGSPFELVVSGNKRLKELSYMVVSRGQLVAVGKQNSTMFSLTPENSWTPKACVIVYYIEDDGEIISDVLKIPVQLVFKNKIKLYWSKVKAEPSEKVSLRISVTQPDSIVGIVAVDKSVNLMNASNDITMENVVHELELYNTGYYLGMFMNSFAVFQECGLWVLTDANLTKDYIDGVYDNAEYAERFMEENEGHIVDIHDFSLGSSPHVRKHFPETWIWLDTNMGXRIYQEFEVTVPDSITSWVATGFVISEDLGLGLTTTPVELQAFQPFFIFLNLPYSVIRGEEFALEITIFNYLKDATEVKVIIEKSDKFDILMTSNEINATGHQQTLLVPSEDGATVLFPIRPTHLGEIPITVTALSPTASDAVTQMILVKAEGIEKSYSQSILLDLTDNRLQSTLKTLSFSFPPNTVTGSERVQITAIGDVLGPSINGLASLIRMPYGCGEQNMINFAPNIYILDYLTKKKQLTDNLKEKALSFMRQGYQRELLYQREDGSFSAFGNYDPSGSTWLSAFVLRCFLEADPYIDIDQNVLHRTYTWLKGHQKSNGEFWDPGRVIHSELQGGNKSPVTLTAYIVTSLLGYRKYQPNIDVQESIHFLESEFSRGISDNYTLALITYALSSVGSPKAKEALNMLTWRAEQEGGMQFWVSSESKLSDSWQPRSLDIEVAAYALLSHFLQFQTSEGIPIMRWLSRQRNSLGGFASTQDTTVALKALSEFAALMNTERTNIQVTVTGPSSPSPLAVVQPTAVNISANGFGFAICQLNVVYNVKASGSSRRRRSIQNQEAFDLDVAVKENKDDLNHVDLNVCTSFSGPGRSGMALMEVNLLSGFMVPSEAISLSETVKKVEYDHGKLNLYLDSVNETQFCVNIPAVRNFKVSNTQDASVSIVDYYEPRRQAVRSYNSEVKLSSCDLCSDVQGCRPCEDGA

Sequence of Transforming growth factor-β1 (P01137 279-390 limits assumed): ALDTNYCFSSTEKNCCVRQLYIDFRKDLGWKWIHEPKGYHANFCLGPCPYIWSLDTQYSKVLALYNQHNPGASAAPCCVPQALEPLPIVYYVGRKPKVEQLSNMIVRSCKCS

| percent inhibition of 125I-TGF-β1 binding to MvLu1 cells [1] [%] | percent inhibition of 125I-TGF-β1 binding to MvLu1 cells [2] [%] | percent inhibition of 125I-TGF-β1 binding to MvLu1 cells [3] [%] | percent inhibition of 125I-TGF-β1 binding to MvLu1 cells [4] [%] | ratio of the concentration for half-maximal inhibition of 125I-TGF-β1 binding, r150 against the types I or II receptors [5] [fold] | Substance |
| --- | --- | --- | --- | --- | --- |
| 33 | 15 | 31 | 50 | – | soluble r150 (released from the cell surface by PIPLC or by an endogenous phospholipase C) (from UniProt Q6YHK3 22-1420) (receptor) |
| – | – | – | – | 6 | Transforming growth factor-β3 (from UniProt P10600 301-412) (ligand) |
